Here are results for 26 molecules from US20240309093A1 (MINGHUI PHARMACEUTICAL HANGZHOU, published 2024).

In experiment [1] the target is T1, recombinant human PD-1-his protein (human, UniProt Q15116 25-167).
T1 construct: also called hPD-1-his; not shown: his tag
Nature of the experiment: ELISA; PD-1-his coated 2 µg/mL, anti-human IgG Fc-HRP. On the procedure: (§1) The plates were washed three times with PBST. 5% PBS-Milk was added and incubated at room temperature for 2 h. The plates were washed three times with PBST. All the nanobody-Fc fusion proteins were subject to 3-fold gradient dilutions with an initial concentration of 10 μg/mL, added into each well at 30 μL/well, and incubated at room temperature for 1 hr. The plates were washed three times with PBST. The secondary antibody Goat-Anti-Human-IgG-Fc-HRP was diluted at 1:8000, added into each well at 30 μL/well, and incubated at room temperature for 50 min. The plates were washed nine times with PBST. TMB was added into each well at 30 μL/well and developed at room temperature in dark for 1 min to 5 min. 2 M hydrochloric acid was added at 30 μL/well to stop the reaction. The OD450 absorbance value was read by a microplate reader. Graphpad Prism software was used to fit the curve and calculate the EC₅₀ value (see Table 7).

The target of experiment [2] is T2, recombinant human PD-1-Fc-Biotin (human, UniProt Q15116 25-167, biotin (site not stated)).
T2 construct: also called antigen protein human PD-1; not shown: Fc
T2 sequence (Q15116 25-167 limits assumed): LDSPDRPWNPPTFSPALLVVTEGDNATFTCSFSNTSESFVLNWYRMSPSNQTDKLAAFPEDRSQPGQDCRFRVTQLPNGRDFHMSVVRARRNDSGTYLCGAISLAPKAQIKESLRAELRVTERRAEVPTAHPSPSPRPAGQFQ
Nature of the experiment: competitive ELISA; PD-L1-mFc coated, 0.5 µg/mL PD-1-Fc-Biotin, streptavidin-HRP. On the procedure:
The plates were washed three times with PBST. 5% PBS-Milk was added and incubated at room temperature for 1 hr. All the nanobody-Fc fusion proteins were subject to 3-fold gradient dilutions with an initial concentration of 10 μg/mL, added into each well at 30 μL/well, and incubated at room temperature for 1 hr. […] The well plates were washed with PBST between incubations.

The target of experiment [3] is T1, recombinant human PD-1-his protein. In words: ELISA; PD-1-his coated 2 µg/mL, anti-human IgG Fc-HRP. On the procedure:
as §1, with “PBS-Milk” for “PBS-Milk was added”, “3-folded” for “3-fold”, “dilution” for “dilutions”, “calculate” for “calculate the”, “values.” for “value (see Table 7).”
This is another data set of the same source.

Like-named read-outs stand apart in the source and are kept apart here.

T1 sequence (Q15116 25-167 limits assumed): as above

B1: MHPD1-A-2 H Fc (Fc fusion, not shown: a dimerising Fc or GST; small tags and cut ends)
VHH: QVQLVESGGGLVQPGGSLRLSCAASGRFPSIYAMGWFRQAPGKGLEFVAGIGWRYATTYYADSVKGRFTISRDNTKNTLYLQMNSLRAEDTAVYYCAADLDHSGFDYWGQGTLVTVSS
On to B1, for which the EC50 in experiment [1] was found to be 0.553 nM. Also, the IC50 in experiment [2] was 0.419 nM.

B2: MHPD1-A-25 H Fc (Fc fusion)
chain: QVQLVESGGGLVQPGGSLRLSCATSGVRRSIYAMGWFRQAPGKGLEFVAGIGWAYATTYYADSVKGRFTISRDNTKNTLYLQMNSLRAEDTAVYYCAADLDRHGFDYWGQGTLVTVSS
notes: not shown: Fc
With B2, the EC50 in experiment [3] came to 0.211 nM.

B3: MHPD1-A-42 H Fc (Fc fusion)
chain: QVQLVESGGGLVQPGGSLRLSCATSGSRQTIYAMGWFRQAPGKGLEFVAGIGWAYATQYYADSVKGRFTISRDNTKNTLYLQMNSLRAEDTAVYYCAADLDHSGFDYWGQGTLVTVSS
notes: not shown: Fc
In the case of B3, the EC50 in experiment [3] turned out to be 0.193 nM.

B4: MHPD1-A-27 H Fc (Fc fusion)
VHH: QVQLVESGGGLVQPGGSLRLSCATSKSRRSIYAMGWFRQAPGKGLEFVAGIGWAYATTYYADSVKGRFTISRDNTKNTLYLQMNSLRAEDTAVYYCAADLDHSGFDYWGQGTLVTVSS
notes: not shown: Fc region
Turning to B4, the concentration for a half-maximal effect (EC50) in experiment [3] was determined as 0.54 nM.

B5: MHPD1-A-11 H Fc (Fc fusion, not shown: a dimerising Fc or GST; small tags and cut ends)
VHH: QVQLVESGGGLVQPGGSLRLSCAASGSQLSIYAMGWFRQAPGKGLEFVAGIGWRFATTYYADSVKGRFTISRDNTKNTLYLQMNSLRAEDTAVYYCAADLDHSGFDYWGQGTLVTVSS
As for B5, the EC50 in experiment [1] was found to be 0.222 nM. Besides, the IC50 in experiment [2] is 0.365 nM.

B6: MHPD1-A-17 H Fc (Fc fusion, not shown: a dimerising Fc or GST; small tags and cut ends)
VHH: QVQLVESGGGLVQPGGSLRLSCATSGSISSIYAMGWFRQAPGKGLEFVAGIGWAYATTYYADSVKGRFTISRDNTKNTLYLQMNSLRAEDTAVYYCAADLDHSGFDYWGQGTLVTVSS
As to B6, the EC50 in experiment [3] turned out to be 0.196 nM.

B7: MHPD1-A-12 H Fc (Fc fusion, not shown: a dimerising Fc or GST; small tags and cut ends)
VHH: QVQLVESGGGLVQPGGSLRLSCAASGSDYAIYAMGWFRQAPGKGLEFVAGIGWAFATTYYADSVKGRFTISRDNTKNTLYLQMNSLRAEDTAVYYCAADLDHSGFDYWGQGTLVTVSS
Turning to B7, the 50% effective concentration (EC50) in experiment [1] is 0.311 nM. For the same molecule, the IC50 in experiment [2] amounted to 0.293 nM.

B8: MHPD1-A-38 H Fc (Fc fusion, not shown: a dimerising Fc or GST; small tags and cut ends)
VHH: QVQLVESGGGLVQPGGSLRLSCATSGNRRSIYAMGWFRQAPGKGLEFVAGIGWAYATTYYADSVKGRFTISRDNTKNTLYLQMNSLRAEDTAVYYCAADLDRRGFDYWGQGTLVTVSS
Turning to B8, in experiment [3], the half-maximal effective concentration (EC50) turned out to be 0.421 nM.

B9: MHPD1-A-28 H Fc (Fc fusion)
VHH: QVQLVESGGGLVQPGGSLRLSCATSKLRRSIYAMGWFRQAPGKGLEFVAGIGWAYATQYYADSVKGRFTISRDNTKNTLYLQMNSLRAEDTAVYYCAADLDHSGFDYWGQGTLVTVSS
notes: not shown: Fc region
Take B9: the EC50 in experiment [3] came to 0.242 nM.

B10: MHPD1-A-5 H Fc (Fc fusion, not shown: a dimerising Fc or GST; small tags and cut ends)
VHH: QVQLVESGGGLVQPGGSLRLSCAASGSSLSIYAMGWFRQAPGKGLEFVAGIGWAYATTYYADSVKGRFTISRDNTKNTLYLQMNSLRAEDTAVYYCAADLDHSGFDYWGQGTLVTVSS
Turning to B10, the EC50 in experiment [1] stood at 0.157 nM. The IC50 in experiment [2] is 0.306 nM.

B11: MHPD1-A-31 H Fc (Fc fusion)
VHH: QVQLVESGGGLVQPGGSLRLSCATSGSRRSIYAMGWFRQAPGKGLEFVAGLGWAYATTYYADSVKGRFTISRDNTKNTLYLQMNSLRAEDTAVYYCAADLDHHGFDYWGQGTLVTVSS
notes: not shown: Fc region
Regarding B11, in experiment [3], the concentration for a half-maximal effect (EC50) was 0.219 nM.

B12: MHPD1-A-29 H Fc (Fc fusion)
VHH: QVQLVESGGGLVQPGGSLRLSCATSGSGGSIYAMGWFRQAPGKGLEFVAGIGWAYATTYYADSVKGRFTISRDNTKNTLYLQMNSLRAEDTAVYYCAADLDHSGFDYWGQGTLVTVSS
notes: not shown: Fc region
Turning to B12, in experiment [3], the 50% effective concentration (EC50) stood at 2.18 nM.

B13: MHPD1-A-33 H Fc (Fc fusion)
VHH: QVQLVESGGGLVQPGGSLRLSCATSGSRSQIYAMGWFRQAPGKGLEFVAGIGWAYATTYYADSVKGRFTISRDNTKNTLYLQMNSLRAEDTAVYYCAADLDHSGFDYWGQGTLVTVSS
notes: not shown: Fc region
For B13, the EC50 in experiment [3] worked out at 0.628 nM.

B14: MHPD1-A-24 H Fc (Fc fusion)
chain: QVQLVESGGGLVQPGGSLRLSCATSGSRHSIYAMGWFRQAPGKGLEFVAGIGWAYATTYYADSVKGRFTISRDNTKNTLYLQMNSLRAEDTAVYYCAADLDRAGFDYWGQGTLVTVSS
notes: not shown: Fc
B14: in experiment [3], the EC50 came to 0.177 nM.

B15: MHPD1-A-16 H Fc (Fc fusion, not shown: a dimerising Fc or GST; small tags and cut ends)
VHH: QVQLVESGGGLVQPGGSLRLSCATSGSRVSIYAMGWFRQAPGKGLEFVAGIGWAYATTYYADSVKGRFTISRDNTKNTLYLQMNSLRAEDTAVYYCAADLDHSGFDYWGQGTLVTVSS
Take B15: the EC50 in experiment [3] is 0.187 nM.

B16: MHPD1-A-22 H Fc (Fc fusion)
VHH: QVQLVESGGGLVQPGGSLRLSCATSGSRRSIYAMGWFRQAPGKGLEFVAGIGWAYATTYYADSVKGRFTISRDNTKNTLYLQMNSLRAEDTAVYYCAADLDRGGFDYWGQGTLVTVSS
notes: not shown: Fc region
For the molecule B16, the EC50 in experiment [3] came out at 0.242 nM.

B17: MHPD1-A-43 H Fc (Fc fusion, not shown: a dimerising Fc or GST; small tags and cut ends)
VHH: QVQLVESGGGLVQPGGSLRLSCATSGSRRSIYAMGWFRQAPGKGLEFVAGIGWAYATTYYADSVKGRFTISRDNTKNTLYLQMNSLRAEDTAVYYCAADLDRAGFDYWGQGTLVTVSS
In the case of B17, in experiment [3], the EC50 was 0.387 nM.

B18: MHPD1-A-46 H Fc (Fc fusion, not shown: a dimerising Fc or GST; small tags and cut ends)
VHH: QVQLVESGGGLVQPGGSLRLSCATSGSKGSIYAMGWFRQAPGKGLEFVAGIGWAYATTYYADSVKGRFTISRDNTKNTLYLQMNSLRAEDTAVYYCAADLDRSGFDYWGQGTLVTVSS
As to B18, in experiment [3], the EC50 was found to be 0.252 nM.

B19: MHPD1-A-1 H Fc (Fc fusion, not shown: a dimerising Fc or GST; small tags and cut ends)
VHH: QVQLVESGGGLVQPGGSLRLSCAASGSDPSIYAMGWFRQAPGKGLEFVAGIGWAWATTYYADSVKGRFTISRDNTKNTLYLQMNSLRAEDTAVYYCAADLDRSGFDYWGQGTLVTVSS
In the case of B19, the EC50 in experiment [1] came to 0.613 nM. Moreover, in experiment [2], the IC50 is 0.572 nM.

B20: MHPD1-A-35 H Fc (Fc fusion)
VHH: QVQLVESGGGLVQPGGSLRLSCATSAPRRSIYAMGWFRQAPGKGLEFVAGIGWAYGTTYYADSVKGRFTISRDNTKNTLYLQMNSLRAEDTAVYYCAADLDHSGFDYWGQGTLVTVSS
notes: not shown: Fc region
For B20, the EC50 in experiment [3] stood at 0.824 nM.

B21: MHPD1-A-6 H Fc (Fc fusion, not shown: a dimerising Fc or GST; small tags and cut ends)
VHH: QVQLVESGGGLVQPGGSLRLSCAASGRRPSIYAMGWFRQAPGKGLEFVAGIGWNYATTYYADSVKGRFTISRDNTKNTLYLQMNSLRAEDTAVYYCAADLDHSGFDYWGQGTLVTVSS
Regarding B21, the EC50 in experiment [1] is 0.16 nM. The IC50 in experiment [2] is 0.407 nM.

B22: MHPD1-A-44 H Fc (Fc fusion)
chain: QVQLVESGGGLVQPGGSLRLSCATSGSRTRIYAMGWFRQAPGKGLEFVAGIGWAYATEYYADSVKGRFTISRDNTKNTLYLQMNSLRAEDTAVYYCAADLDHSGFDYWGQGTLVTVSS
notes: not shown: Fc
On to B22, for which the EC50 in experiment [3] worked out at 0.198 nM.

B23: MHPD1-A-10 H Fc (Fc fusion, not shown: a dimerising Fc or GST; small tags and cut ends)
VHH: QVQLVESGGGLVQPGGSLRLSCAASGSDDRIYAMGWFRQAPGKGLEFVAGIGWRYATTYYADSVKGRFTISRDNTKNTLYLQMNSLRAEDTAVYYCAADLDHSGFDYWGQGTLVTVSS
In the case of B23, in experiment [1], the EC50 amounted to 0.2 nM. Besides, the IC50 in experiment [2] is 0.287 nM.

B24: MHPD1-A-9 H Fc (Fc fusion, not shown: a dimerising Fc or GST; small tags and cut ends)
VHH: QVQLVESGGGLVQPGGSLRLSCAASGSGHSIYAMGWFRQAPGKGLEFVAGIGWSYATTYYADSVKGRFTISRDNTKNTLYLQMNSLRAEDTAVYYCAADLDHSGFDYWGQGTLVTVSS
On to B24, for which the half-maximal effective concentration (EC50) in experiment [1] was 0.163 nM. The IC50 in experiment [2] was found to be 0.256 nM.

B25: MHPD1-A-19 H Fc (Fc fusion, not shown: a dimerising Fc or GST; small tags and cut ends)
VHH: QVQLVESGGGLVQPGGSLRLSCATSGSEVSIYAMGWFRQAPGKGLEFVAGIGWAYATTYYADSVKGRFTISRDNTKNTLYLQMNSLRAEDTAVYYCAADLDRRGFDYWGQGTLVTVSS
B25: in experiment [3], the EC50 turned out to be 0.27 nM.

B26: MHPD1-A-18 H Fc (Fc fusion, not shown: a dimerising Fc or GST; small tags and cut ends)
VHH: QVQLVESGGGLVQPGGSLRLSCATSGSRSSIYAMGWFRQAPGKGLEFVAGLGWAYATTYYADSVKGRFTISRDNTKNTLYLQMNSLRAEDTAVYYCAADLDHLGFDYWGQGTLVTVSS
With B26, the EC50 in experiment [3] came out at 0.178 nM.
